# In US8343490B2, “Monoclonal antibody SC104 and derivative thereof specifically binding to a sialyltetraosyl carbohydrate as a potential anti-tumor therapeutic agent” (Cephalon Australia Pty Ltd, priority 2004, dated 2013):
# T1: CEA (Homo sapiens, UniProt P06731)
# T1 construct: from tissue
# T1 sequence (P06731 35-676): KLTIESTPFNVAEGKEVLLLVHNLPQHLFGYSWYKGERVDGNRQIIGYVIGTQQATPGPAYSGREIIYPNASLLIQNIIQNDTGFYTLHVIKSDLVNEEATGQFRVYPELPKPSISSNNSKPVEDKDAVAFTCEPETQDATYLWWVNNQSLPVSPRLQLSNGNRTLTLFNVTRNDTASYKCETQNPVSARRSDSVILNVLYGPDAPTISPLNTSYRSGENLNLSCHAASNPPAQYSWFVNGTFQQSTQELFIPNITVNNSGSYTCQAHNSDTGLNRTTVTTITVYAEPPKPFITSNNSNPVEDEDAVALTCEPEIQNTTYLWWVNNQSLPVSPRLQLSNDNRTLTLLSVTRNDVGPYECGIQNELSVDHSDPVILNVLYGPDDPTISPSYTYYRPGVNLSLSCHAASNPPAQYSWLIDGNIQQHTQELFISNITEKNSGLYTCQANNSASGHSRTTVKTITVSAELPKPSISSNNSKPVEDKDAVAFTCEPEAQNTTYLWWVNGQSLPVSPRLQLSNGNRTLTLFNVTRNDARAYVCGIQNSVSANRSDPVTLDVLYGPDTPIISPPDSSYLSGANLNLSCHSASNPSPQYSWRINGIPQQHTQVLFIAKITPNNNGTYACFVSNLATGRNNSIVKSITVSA
# B1: SC104: mouse IgG1 monoclonal antibody specific for a sialyltetraosyl carbohydrate, raised by immunisation with colorectal cancer cell lines (antibody, V domains shown)
# VH: DVQLQESGPDLVKPSQSLSLTCTVTGYSITSGYSWHWVRQFPGNKMEWMGHIHFSGRPTYNPSLSSRISITRDTSKNQFLLQLKFVTTEDTSTYFCARKGKGSDDGLNYWGQGISVTVSS
# VL: ENVLTQSPVIMSASPGEKVTMTCSASSSLSYIHWYQQKSRTSPKLWIYDTSNLASGVPGRFSGSGSGNSYSLTISSMEAEDVATYYCFQGSEYPLTFGGGTKLEMT
# How the values were obtained:
# [1] = system: range of tumour cell lines; assay: Binding to tumour cell lines by ELISA; settings: SC104 1 μg/ml; FIG. 2a
# Experimental: C170, Colo205, MKN45, R1D9, and 791T cells (10^5) were resuspended in 50 μl of SC104 mab (0-20 μg/ml) and incubated on ice for 20 min. After washing the samples 3 times in RPMI/10% FCS cells were incubated with FITC labelled rabbit anti-mouse (1/50: Dako Ltd, Bucks, UK) antibody and incubated on ice for 30 minutes prior to analysis on a FACScan (Becton Dickinson, Sunnyvale, Calif.). Results are expressed as mean linear fluorescence (MLF). • Binding to tumour cells by ELISA. 96-well tissue culture plates were coated with cells at a cell density of 5×10^5 cells/ml (100 μl/well) in 10% foetal bovine serum in RPMI 1640. The plates were incubated overnight at 37° C., 5% CO2, 95% air. The cells were then washed twice in phosphate buffered saline (pH7.3, PBS) prior to being fixed with 0.5% glutaraldehyde in PBS (10 min, 25° C., 100 μl/well). Remaining non-specific binding sites were blocked by incubation for 1 hr with 1% bovine serum albumin (fraction V from Sigma Chemicals Ltd.) in PBS. The cells were washed three times with a washing solution consisting of 0.05% Tween 20 in phosphate buffered saline. Cells were incubated with SC104 (1 μg/ml) for 1 hr at room temperature and then bound antibody detected with goat anti-mouse horse radish peroxidase and ABTS. Results are expressed as absorbance at 405 nm. Results
# CEA = target: T1, CEA; assay: ELISA on purified CEA; assay type: binding; settings: FIG. 4
# Experimental: • Binding to purified antigen preparations. […] Binding of SC104 mab was assayed by ELISA as described above.
# [2] = HPTLC immunostaining of C170 lipid extract fractions; assay type: binding
# Experimental: • Lipid extraction from C170 tumour cells. A pellet of C170 cells (1 ml packed cell volume) was obtained by trypsinisation of a static adherent tissue culture. The pellet was washed in PBS and the excess buffer removed by aspiration following centrifugation, then stored at −80° C. The pellet was extracted with chloroform:methanol (3:1, v/v, 19 ml). The resultant emulsion was centrifuged at 8,000 rpm in a 50 ml solvent resistant (Tefzel) centrifuge tube for 15 min at 4° C. The supernatant was dried down using a rotary evaporator at 30° C. and resuspended in a small volume (˜1 ml) chloroform:methanol:0.5% CaCl2(aq) (50:40:10). • HPTLC analysis of lipid extracts The sample was multiply spotted onto a Merck HPTLC plate and developed in chloroform:methanol:0.5% CaCl2(aq) (50:40:10) as standard. The plates were dried and then placed in an iodine vapour tank. Bands were marked in pencil and the iodine allowed to evaporate off the plate over night. The plates were then immunostained in order to localise the antigen. • Immunostaining of developed HPTLC plates. For SC104 immunostaining, the plates were immersed in polyisobutyl methylmethacrylate (0.1% w/v solution) hexane:chloroform (9:1) for 15 seconds then allowed to dry. The plates were then blocked in 3% BSA in PBS for 1 hr at room temperature, followed by incubation in either test antibody solution (10 μg/ml) or BSA solution, for 1 hr at room temperature. The plates were then washed three times in PBS/Tween-20 (0.1%), before being incubated in rabbit anti-mouse HRP conjugate from Dako (1/250 in PBS) for 1 hr at room temperature. The plates were then washed three times in PBS/Tween −20(0.1%) and once in 10 mM Tris, 100 mM NaCl pH 7.0, 0.1% Tween and developed in Sigma-FAST […] reagent. • Chemical staining of developed HPTLC plates. Orcinol staining was employed to detect the presence of carbohydrate moieties. Developed HPTLC plates were allowed to dry before spraying with orcinol reagent until fully coated. The plates were dried in a stream of hot air and incubated at 100° C. for 15 minutes. Ninhydrin staining was used to detect molecules containing free amino groups. Developed HPTLC plate were first allowed to dry and then dipped in ninhydrin solution (0.25% ninhydrin w/v in acetone) until fully wetted. The plate was then allowed to develop at room temperature for several hours. Results
# • Silica column fractionation of lipid extract. A gravity column (150 mm i.d.) was packed with a silica slurry in chloroform:methanol:0.5% CaCl2(aq) (50:40:10). The C170 extract, re-dissolved in ˜1 ml chloroform:methanol:0.5% CaCl2(aq) (50:40:10) was loaded onto the column and eluted using the same solvent conditions. Fractions were collected and analysed by HPTLC. […]
molecule,measurement,setting,value
B1,binding to range of tumour cell lines by ELISA,[1],predominantly bound to cell lines of the gastrointestinal origin
same,staining of CEA by ELISA,CEA,No significant staining
same,binding after chemical removal of sialic acids (acid hydrolysis),"[2]; 0.05 M sulphuric acid, 80° C., 2 hrs",complete loss of SC104 binding
same,binding to asialo form,[2]; HPTLC immunostaining,does not bind to an asialo form
same,binding to sialylated glycolipid forms,"[2]; HPTLC immunostaining, silica column fractions","bind to a mono, di and even polysialylated glycolipid"
same,binding after ceramide glycanase removal of oligosaccharides,"[2]; aqueous and organic phase, FIG. 8",loss of SC104 binding in both fractions
